The test system of data set [1] is Saccharomyces cerevisiae. Kind of data set: protein stability index of tFT-peptide fusion (C-terminal peptide) (PSI (0-1 scale)); higher = more stable (slower turnover). As to the method:
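MPS profiling in S. cerevisiae of the tFT-X12 degron library: putative degron peptides plus stable controls, 12 aa, fused to the C-terminus of a sfGFP-mCherry timer. Cells are FACS-sorted into 8 mCherry/sfGFP bins and deep-sequenced. PSI runs from 0 (unstable) to 1 (stable). Backgrounds are wild type, das1Δ and doa10Δ at 30 °C, and wild type, das1Δ, cdc34-1 and cdc53-1 at 37 °C; 2-3 technical replicates each.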

For data set [2], the system named is Saccharomyces cerevisiae. The description is as above. Conditions: genetic background: wild type; temperature: 30 C.
Where [3] appears, read: genetic background: cdc34-1, temperature: 37 C.
[4] abbreviates: genetic background: cdc53-1, temperature: 37 C.
Where [5] appears, read: genetic background: das1 deletion, temperature: 30 C.
Where [6] appears, read: genetic background: das1 deletion, temperature: 37 C.
Setting [7] is: genetic background: doa10 deletion, temperature: 30 C.
[8] abbreviates: genetic background: wild type, temperature: 30 C.
The mark [9] stands for this setting: genetic background: wild type, temperature: 37 C.

Experimental findings from the supplement of paper PMC10724198 are described below.

± gives the standard deviation of the averaged measurements.
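Note: PSI is a weighted mean of sequencing reads over stability bins, variants kept only with over 10 reads, mCherry proximal and sfGFP distal, peptide attached via GGGS linker.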

With RRIILAGLFLIS, the protein stability index in data set [1] (setting [3]) is 0.586 ± 0.028; in data set [1] (setting [4]), 0.613 ± 0.029; in data set [1] (setting [5]), 0.437 ± 0.033; in data set [1] (setting [6]) it was 0.623 ± 0.046; in data set [1] (setting [7]), 0.332 ± 0.021; in data set [1] (setting [8]) it was 0.353 ± 0.014. Also, the protein stability index in data set [1] (setting [9]) was 0.537 ± 0.0093; in data set [2] it was 0.403 ± 0.0097.

In the case of RRMGLRLFLLWM, the protein stability index in data set [1] (setting [3]) was found to be 0.649 ± 0.045; in data set [1] (setting [4]) it was 0.657 ± 0.0097; in data set [1] (setting [5]) it was 0.534 ± 0.026; in data set [1] (setting [6]) it was 0.67 ± 0.015; in data set [1] (setting [7]), 0.354 ± 0.021; in data set [1] (setting [8]), 0.348 ± 0.032. Besides, the protein stability index in data set [1] (setting [9]) stood at 0.539 ± 0.015; in data set [2] it was 0.4517 ± 0.0011.

On to RSAVECRVTNIR, for which the protein stability index in data set [1] (setting [3]) stood at 0.701 ± 0.031; in data set [1] (setting [4]) it was 0.7227 ± 0.00094; in data set [1] (setting [5]), 0.637 ± 0.018; in data set [1] (setting [6]), 0.724 ± 0.01; in data set [1] (setting [7]), 0.639 ± 0.015; in data set [1] (setting [8]) it was 0.658 ± 0.036. Further, the protein stability index in data set [1] (setting [9]) is 0.715 ± 0.024; in data set [2], 0.546 ± 0.08.

Turning to RSFSKRSFMFLC, the protein stability index came out at 0.621 ± 0.025 in data set [1] (setting [3]); 0.728 ± 0.11 in data set [1] (setting [4]); 0.646 ± 0.018 in data set [1] (setting [5]); 0.734 ± 0.0094 in data set [1] (setting [6]); 0.154 ± 0.0079 in data set [1] (setting [7]); 0.172 ± 0.0087 in data set [1] (setting [8]). Further, the values for the protein stability index in data set [1] (setting [9]) and in data set [2] were 0.227 ± 0.0064 and 0.263 ± 0.012, respectively.

Regarding RSNLSKSWHRIG, the protein stability index was 0.538 ± 0.065 in data set [1] (setting [3]); 0.689 ± 0.014 in data set [1] (setting [4]); 0.645 ± 0.028 in data set [1] (setting [5]); 0.743 ± 0.015 in data set [1] (setting [6]); 0.101 ± 0.011 in data set [1] (setting [7]); 0.11 ± 0.029 in data set [1] (setting [8]). In addition, the protein stability index in data set [1] (setting [9]) worked out at 0.212 ± 0.074; in data set [2], 0.207 ± 0.038.

On to RTMLSNRIKSFI, for which the protein stability index in data set [1] (setting [3]) was 0.6235 ± 0.0026; in data set [1] (setting [4]) it was 0.701 ± 0.038; in data set [1] (setting [5]), 0.642 ± 0.014; in data set [1] (setting [6]) it was 0.723 ± 0.02; in data set [1] (setting [7]), 0.239 ± 0.0068; in data set [1] (setting [8]), 0.244 ± 0.021. Also, the protein stability index was 0.519 ± 0.025 in data set [1] (setting [9]) and 0.415 ± 0.014 in data set [2].

In the case of RVRRETRLRQIA, the protein stability index in data set [1] (setting [3]) is 0.597 ± 0.0087; in data set [1] (setting [4]), 0.732 ± 0.043; in data set [1] (setting [5]), 0.65 ± 0.024; in data set [1] (setting [6]), 0.71 ± 0.021; in data set [1] (setting [7]), 0.1423 ± 0.00049; in data set [1] (setting [8]) it was 0.147 ± 0.0031. The results for the protein stability index in data set [1] (setting [9]) and in data set [2] were 0.269 ± 0.0076 and 0.27 ± 0.047, respectively.

For RVVNRWGVCFLG, the protein stability index in data set [1] (setting [3]) is 0.6 ± 0.0065; in data set [1] (setting [4]) it was 0.7178 ± 0.0067; in data set [1] (setting [5]) it was 0.639 ± 0.014; in data set [1] (setting [6]), 0.733 ± 0.021; in data set [1] (setting [7]) it was 0.124 ± 0.014; in data set [1] (setting [8]), 0.131 ± 0.0093. In addition, the figures for the protein stability index in data set [1] (setting [9]) and in data set [2] were 0.199 ± 0.015 and 0.231 ± 0.0097, respectively.

With RVWTTVFIIRAT, the protein stability index was determined as 0.595 ± 0.032 in data set [1] (setting [3]); 0.609 ± 0.055 in data set [1] (setting [4]); 0.493 ± 0.03 in data set [1] (setting [5]); 0.6146 ± 0.0043 in data set [1] (setting [6]); 0.216 ± 0.023 in data set [1] (setting [7]); 0.229 ± 0.024 in data set [1] (setting [8]). The protein stability index in data set [1] (setting [9]) is 0.424 ± 0.023; in data set [2] it was 0.333 ± 0.062.

As for RYLHFASLLFAS, the protein stability index in data set [1] (setting [3]) turned out to be 0.658 ± 0.019; in data set [1] (setting [4]), 0.709 ± 0.0084; in data set [1] (setting [5]), 0.585 ± 0.012; in data set [1] (setting [6]), 0.729 ± 0.0093; in data set [1] (setting [7]) it was 0.179 ± 0.006; in data set [1] (setting [8]), 0.226 ± 0.035. For the same sequence, the protein stability index in data set [1] (setting [9]) was found to be 0.52 ± 0.016; in data set [2] it was 0.364 ± 0.014.

Turning to SDVLVVWVFFCR, the protein stability index in data set [1] (setting [3]) amounted to 0.292 ± 0.0075; in data set [1] (setting [4]), 0.4196 ± 0.0033; in data set [1] (setting [5]) it was 0.26 ± 0.032; in data set [1] (setting [6]) it was 0.466 ± 0.013; in data set [1] (setting [7]), 0.216 ± 0.029; in data set [1] (setting [8]), 0.263 ± 0.037. The protein stability index came out at 0.435 ± 0.0063 in data set [1] (setting [9]) and 0.405 ± 0.043 in data set [2].

For SELLVHVVFWLA, the protein stability index in data set [1] (setting [3]) was 0.268 ± 0.013; in data set [1] (setting [4]) it was 0.438 ± 0.038; in data set [1] (setting [5]) it was 0.289 ± 0.03; in data set [1] (setting [6]), 0.463 ± 0.012; in data set [1] (setting [7]), 0.1383 ± 0.00086; in data set [1] (setting [8]) it was 0.176 ± 0.019. Also, the protein stability index was determined as 0.303 ± 0.011 in data set [1] (setting [9]) and 0.247 ± 0.025 in data set [2].

As to SFAVSSDYLFII, the protein stability index in data set [1] (setting [3]) was 0.69 ± 0.099; in data set [1] (setting [4]) it was 0.788 ± 0.028; in data set [1] (setting [5]) it was 0.689 ± 0.034; in data set [1] (setting [6]), 0.808 ± 0.032; in data set [1] (setting [7]), 0.316 ± 0.037; in data set [1] (setting [8]), 0.361 ± 0.023. Besides, the protein stability index in data set [1] (setting [9]) is 0.582 ± 0.01; in data set [2], 0.401 ± 0.019.

Consider SFCSFVFVTFVL, for which the protein stability index in data set [1] (setting [3]) worked out at 0.4 ± 0.031; in data set [1] (setting [4]), 0.4842 ± 0.0023; in data set [1] (setting [5]) it was 0.321 ± 0.044; in data set [1] (setting [6]), 0.508 ± 0.022; in data set [1] (setting [7]) it was 0.317 ± 0.016; in data set [1] (setting [8]) it was 0.312 ± 0.02. Further, the protein stability index in data set [1] (setting [9]) is 0.52 ± 0.058; in data set [2] it was 0.455 ± 0.033.

As to SFFCFFLSFFYL, the protein stability index in data set [1] (setting [3]) turned out to be 0.571 ± 0.027; in data set [1] (setting [4]) it was 0.53 ± 0.0091; in data set [1] (setting [5]) it was 0.471 ± 0.011; in data set [1] (setting [6]) it was 0.562 ± 0.018; in data set [1] (setting [7]), 0.475 ± 0.025; in data set [1] (setting [8]), 0.445 ± 0.013. Besides, the figures for the protein stability index in data set [1] (setting [9]) and in data set [2] were 0.539 ± 0.02 and 0.502 ± 0.015, respectively.
